Assay results: patent US20220281965A1 (AstraZeneca / MedImmune, published 2022)
Positions count from the first letter of the chain named.

B1: AB1170244 Fab (Fab, V domains shown)
VH: EVQLVESGGGLVKPGGSLRLSCAASGFTFSSYAMSWVRQAPGKGLEWVAYISSGGDNIYYADTVKGRFTISRDNSKNTLYLQMNSLKTEDTAVYYCTRALVENAYFDYWGQGTTVTVSS
VL: DSVLTQSPDSLAVSLGERATINCRASKSVSTSTYSYMHWYQQKPGQPPKLLIKYASYLESGVPDRFSGSGSGTDFTLKISRVEAEDVGVYYCQHSREFPWTFGGGTKVEIK
notes: Fab of the humanized antibody, expressed as in Spooner et al. 2015
B2: AB1170245 Fab (Fab, V domains shown)
VH: B1 VH with N57Y, E102D
VL: DIVLTQSPDSLAVSLGERATINCRASKSVSTSSYSYMHWYQQKPGQPPKLLIKYASYLEFGVPSRFSGSGSGTDFTLTISSLQPEDVATYYCQHSREFPWTFGGGTKVEIK
notes: as for B1
B3: AB1170241 Fab (Fab, V domains shown)
VH: QVQLVQSGSELKKPGASVKVSCKASGYTFTDYNMDWIRQSPGKGLEWIGDINPNQGGTFYNQKFKDRATLTVDKSTSTAYMELRSLRSDDTAVYYCAREEKLYFGLMDYWGQGTTVTVSS
VL: DIQMTQSPSSLSASVGDRVTITCRASENIYSYLAWYQQKPGKAPKLLVYNAKTLAEGVPSRFSGSGSGIDFTLTISSLQPEDFATYYCQHQYGSPPTFGQGTKLEIK
notes: as for B1
B4: AB1170243 Fab (Fab, V domains shown)
VH: B3 VH with Q55N
VL: B3 VL
notes: as for B1
B5: AB1170019 (antibody, V domains shown)
VH: EVQLQQSGPELVKPGASVKIPCKASGYTFTDYNMDWVKQSHGKSLEWIGDINPNNGGTFYNQKFKDKATLTVDKSSSTAYMELRSLTSEDTAVYYCAREEKLYFGLMDYWGQGTSVTVSS
VL: DIQMTQSPASLSASVGETVTITCRASENIYSYLAWYQQKQGKSPQLLVYNAKTLAEGVPSRFSGSGSGIQFSLKINILQPEDFGNYYCQHQYGSPPTFGGGTKLEIK
B6: AB1170242 Fab (Fab, V domains shown)
VH: QVQLQESGPGLLKPSQTLSLTCTVSGFSLSTYGMGVGWIRQPAGKGLEWLANIWWNDDKYYNSALKSRLTISKDTSKNQVSLKLSSVTAADTAVYYCAQEVYGWFAYWGQGTLVTVSS
VL: DIQMTQSPSTLSASVGDRVTITCKASQNVGTNVAWYQQKPGQPPKALIYSASYRYSGVPDRFSGSGSGTDFTLTISSLQAEDVAVYYCQQYNSYPLTFGQGTKLEIK
notes: as for B1
B7: AB1170249 Fab (Fab, V domains shown)
VH: B6 VH with A43L, E100M, V101A, G103S
VL: B6 VL with T10F, V29M, G30D, L96F
notes: as for B1
B8: AB1170010 (antibody, V domains shown)
VH: QVTLKESGPGILQPSQTLSLTCSFSGFSLSTYGMGVGWIRQPSGKGLEWLANIWWNDDKYYNSALKSRLTISKDTSNNQVFLKISSVDTADTATYYCAQEVYGWFAYWGQGTLVTVSS
VL: DIVMTQSQKFMSTSVGDRVSVTCKASQNVGTNVAWYQQKPGQSPKALIYSASYRYSGVPDRFTGSGSGTDFTLTISNVQSEDLAEYFCQQYNSYPLTFGGGTKLEIK
B9: AB1520085 Fab (Fab, V domains shown)
VH: QVQLQQPGAELVMPGASVKMSCKASGYTFTDYWMHWVKQRPGQGLEWIGVIDTSESYTSYNQKFKGKATLTVDESSSTAYMQLSSLTSEDSAVYFCARGGTTVVLDYWGQGTTLTVSS
VL: B8 VL with N32A, Q38K, Y53T, S56T, N92S, Y94S, L96W, I106L
notes: Fab of the anti-mouse GDF-15 mouse IgG1, expressed as in Spooner et al. 2015
B10: AB1170074 (antibody, V domains shown)
VH: EVQLQQSGRELVKPGASVKMSCKASGYTFTNYVMHWVKQKPGQGLEWIGYINPHNDGTEYSEKFKGKATLTSDKSSSTAYMELSSLTSEDSAVYYCARWYYDGGYFAYWGQGTLVTVSA
VL: DIVMTQSPATLSVTPGDRVSLSCRASQSISDYLHWYQQKSHESPRLLIKYASQSISGIPSRFSGSGSGSDFTLSINSVEPEDVGVYYCQNGHSFPLTFGAGTKLELK

Tests used:
[1] = target: T1, mature recombinant cynomolgus GDF-15 with an N-terminal Flag and His tag, biotinylated (cynomolgus, UniProt G7PWZ3 197-308, chemically biotinylated with EZ link Sulfo-NHS-LC-Biotin, sites not stated); test: SPR Biacore 8K, 25 C, biotinylated GDF-15 on streptavidin C1 chip, Fab as analyte
T1 construct: not shown: N-terminal Flag and His tags
T1 sequence: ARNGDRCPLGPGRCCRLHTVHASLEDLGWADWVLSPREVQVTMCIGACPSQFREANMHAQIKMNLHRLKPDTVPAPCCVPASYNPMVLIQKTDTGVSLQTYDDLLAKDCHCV
Procedure: (§1) The experiments were carried out using mature recombinant human GDF-15, human GDF-15 H202D variant, mouse GDF-15, and cynomolgus GDF-15 with an N-terminal Flag and His tag. All species were chemically biotinylated using EZ link Sulfo-NHS-LC-Biotin (Thermo).
(§2) Streptavidin was covalently immobilized to a C1 chip surface using standard amine coupling techniques at a concentration of 4 μg/ml in 10 mM Sodium acetate pH 4.5. Recombinant biotinylated GDF-15 species were titrated onto the streptavidin chip surface in HBS-EP+ buffer to enable Fab binding.
(§3) Multiple buffer-only injections were made under the same conditions to allow for double reference subtraction of the final sensorgram sets, which were analyzed using Biacore 8K Evaluation Software. The chip surface was fully regenerated with pulses of 50 mM NaOH.

[2] = target: T2, mature recombinant mouse GDF-15 with Flag and His tags (mouse, UniProt Q9Z0J7 189-303); test: as above
T2 construct: also called Flag tagged mouse GDF-15; not shown: FLAG and poly-His tags immediately C-terminal to the furin cleavage site (N-terminal on the mature protein)
T2 sequence: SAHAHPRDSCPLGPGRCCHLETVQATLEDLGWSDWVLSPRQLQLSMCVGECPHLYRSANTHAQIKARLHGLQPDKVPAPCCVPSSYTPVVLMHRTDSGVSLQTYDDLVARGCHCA
Procedure: as §1, §2, §3

[3] = target: T3, mature recombinant human GDF-15 H202D variant with an N-terminal Flag and His tag, biotinylated (human, UniProt Q99988 197-308, chemically biotinylated with EZ link Sulfo-NHS-LC-Biotin, sites not stated); test: as above
T3 construct: also called Human H202D; not shown: N-terminal Flag and His tags
T3 chain: T1 sequence with R6D, H21R, E54A, M63T, N64S, V112I
Procedure: as §1, §2, §3

[4] = target: T4, mature recombinant human GDF-15 with an N-terminal Flag and His tag, biotinylated (human, UniProt Q99988 197-308, chemically biotinylated with EZ link Sulfo-NHS-LC-Biotin, sites not stated); test: as above
T4 construct: not shown: N-terminal Flag and His tags
T4 sequence: T1 sequence with R6H, H21R, E54A, M63T, N64S, V112I
Procedure: as §1, §2, §3

mature human GDF-15 = target: T5, mature human GDF-15 (human, UniProt Q99988 197-308); test: HTRF epitope competition; competitor DyLight 650 labelled Antibody A; Europium labelled human GDF-15
T5 construct: Homodimer; also called hGDF-15; recombinant hu-GDF15
T5 sequence: T1 sequence with R6H, H21R, E54A, M63T, N64S, V112I
Description: Antibodies from the immunizations with human GDF-15, in the form of crude supernatants from the immunization or in the form of purified IgGs, were chosen on the basis that they bind and compete with an epitope recognized by a control anti-GDF-15 antibody “Antibody A”. A biochemical epitope competition format was applied using an HTRF epitope competition assay that measured the binding of DyLight 650 labelled Antibody A to Europium labelled human GDF-15 (Prospec). In the absence of Antibody A binding, there is no detectable FRET fluorescence. When Antibody A binds to GDF-15, the resulting physical proximity between the secondary reagent donor/acceptor pair results in FRET. Competition with an antibody that recognizes the same or similar epitope will result in a dose dependent reduction of the FRET signal. FRET was measured ratiometrically [665 nm (acceptor)/620 nm (donor)] on an Envision plate reader, and IC₅₀ values were determined by curve fitting the data to a four parameter logistic equation using PRISM 6® software (Graphpad).

[5] = target: T6, biotinylated human H202D GDF-15 variant (human, UniProt Q99988 197-308, biotinylated, sites not stated); test: HTRF binding assay, biotinylated antigen, titration of antibody
T6 construct: also called Human GDF-15 H202D
T6 chain: T1 sequence with R6D, H21R, E54A, M63T, N64S, V112I
Description: (§4) Supernatants generated from the immunizations with human GDF-15 and purified IgGs were screened to identify IgGs with specific binding to human, cynomolgus, or mouse GDF-15. The HTRF (Homogeneous Time Resolved Fluorescence) assay is based on detection of a measurable FRET signal upon binding of a titration of test antibody to biotinylated human H202D GDF-15 variant, cynomolgus GDF-15 and mouse GDF-15. Europium cryptate (EuK) labelled Streptavidin and anti-human IgG XL665 (Cis Bio) were used as secondary detection reagents serving as energy donor and acceptor respectively. In the absence of test antibody binding, there is no detectable FRET fluorescence. When test antibody binds to GDF-15, the resulting physical proximity between the secondary reagent donor/acceptor pair results in FRET. FRET was measured ratiometrically [665 nm (acceptor)/620 nm (donor)] on an Envision plate reader, and data plotted using PRISM 6® software (Graphpad).

[6] = target: T7, biotinylated cynomolgus GDF-15 (cynomolgus, UniProt G7PWZ3 197-308, biotinylated, sites not stated); test: as above
T7 construct: also called Cyno GDF-15
T7 sequence: T1 sequence
Description: as §4

mouse GDF-15 = target: T8, mouse GDF-15 (mouse, UniProt Q9Z0J7 189-303); test: as above
T8 construct: also called mGDF-15
T8 sequence: T2 sequence
Description: as §4

Binder	Kd [1] [nM]	koff [1] [s⁻¹]	kon [1] [M⁻¹ s⁻¹]	Kd [2] [nM]	koff [2] [s⁻¹]	kon [2] [M⁻¹ s⁻¹]	Kd [3] [nM]	koff [3] [s⁻¹]	kon [3] [M⁻¹ s⁻¹]	Kd [4] [nM]	koff [4] [s⁻¹]	kon [4] [M⁻¹ s⁻¹]	IC50 (mature human GDF-15) [nM]	binding result [5]	binding result [6]	binding result (mouse GDF-15)
B1	5.47	0.0145	2.64e+06	916	0.54	591000	2.39	0.00595	2.49e+06	2.35	0.00558	2.39e+06				
B2	20.9	0.0712	3.42e+06	2400	1.5	643000	10.5	0.0321	3.07e+06	10.2	0.0315	3.1e+06				
B3	0.476	0.00279	5.87e+06	107	0.329	3.07e+06	0.156	0.000696	4.45e+06	0.159	0.000663	4.18e+06				
B4	0.273	0.00169	6.23e+06	75	0.281	3.9e+06	0.09	0.000425	4.85e+06	0.09	0.000422	4.74e+06				
B5													0.864	binds	binds	
B6	2.88	0.0245	8.5e+06	908	0.826	903000	3.13	0.0233	7.47e+06	3.22	0.0247	7.68e+06				
B7	3.11	0.0129	4.15e+06	1140	0.928	804000	3.04	0.0113	3.72e+06	3.13	0.0114	3.63e+06				
B8													0.758	binds	binds	binds
B9	2.8	0.0078	2.79e+06	0.14	0.000244	1.75e+06	1.63	0.00478	2.92e+06	1.64	0.00489	2.97e+06				
B10													1.37		binds	binds
